Assay: yeast display, Sf9 membrane polyspecificity reagent, FACS + sequencing; frameworks hold sequencing errors
Outline: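 Genes from sorted yeast were amplified by colony PCR, read by MiSeq 2 × 250 sequencing and filtered on CDR length. These cells carried a synthetic nanobody library in Saccharomyces cerevisiae BJ5465 and were sorted by FACS into low and high (top ~1%) gates on anti-HA and streptavidin fluorescence. Polyreactivity is labelled according to the gate of origin.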

## QVQLVESGGGLVQAGGSLRLSCAASGRIIANYAMGWYRQAPGKEREVVAGISSGGSTNYADSVKGRFTISRDNAKNPVYLQMNSLKPEDTAVYYCAKDPAYRVSKYDYWGQGTQVTVSS
  polyreactivity (PSR sort gate): low polyreactivity

## QVQLVESGGGLVQAGGSLRLSCAASGSIFRSYAMGWYRQAPGKERELVAGISYSGGSTYYADSVKGRFTISRDNAKNTVYLQMNSLKPEDTAVYYCNTRTGAFFLSKPYDYWGQGTQVTVSS
  polyreactivity (PSR sort gate): low polyreactivity

## QVQLVESGGGLVQAGGSLRLSCAASGSTFSRYTMGWYRQAPGKEWELVAAISFRASSTYYADSVKGRFTISRDNAKNTVYLQMNSLKPEDTAVYYCAARNVFRYRWPIEYDYWGQGTQVTVSS
  polyreactivity (PSR sort gate): low polyreactivity

## QVQLVESGGGLVQAGGSLRLSCAASGRIFRSNAMGWYSQAPGKERELVAAITLRGGSTFYADSVKGRFTISRDNAKNTVYLQMNSLKPEDTAVYYCAARSYWSRSIWSPYDYWGQGTQVTVSS
  polyreactivity (PSR sort gate): high polyreactivity

## QVQLVESGGGLVQAGGSLRLSCAASGRIFSIYGMGWYRQAPGKERELVAVISGSVAITYYADSVKGRFTISRDNAKNTVYLQMNSLKPEDTAVYYCAAVYQSRLWARYYYWGQGSQVTVSS
  polyreactivity (PSR sort gate): high polyreactivity

## QVQLVESGGGLVQAGGSLRLSCAASGSTFGKNAMGWYRQAPGKERELVAAITSSGGRTYYADSVKGRFTISRDNAKNTVYLQMNSLKPEDTAVYYCNAVTRRRSLGPWPVEYDYWGQGTQVTVSS
  polyreactivity (PSR sort gate): high polyreactivity

## QVQLVESGGGLVQAGGSLRLSCAASGSNFKLYSMGWYRQAPGKERELVATIRWSGGSTYYADSVKGRFTISRDNAKNTVYLQMNSLKPEDTAVYYCAARRVRPNGYTSSPLDYWGQGTQVTVSS
  polyreactivity (PSR sort gate): high polyreactivity

## QVQLVESGGGLVQAGGSLRLSCAASGGTFDVYTMGWYRQAPGKERELVAAIDNGGSTNYADSVKGRFTISRDNAKNTVYLQMNSLQPEDTAVYYCAADEVYLFWGIAEFIYDYWGQGTQVTVSS
  polyreactivity (PSR sort gate): low polyreactivity

## QVQLVESGGGLVQAGGSLRLSCAPSGRIFPRNAMGWYRQAPGKERELVAAITKSGGSTYYADSVKGRFTISRDNAKNTVYLQMNSLKPEDTAVYYCNAVQYRNYYWGQGTQVTVSS
  polyreactivity (PSR sort gate): high polyreactivity

## QVQLVESGGGLVQAGGSLRLSCAASGFTFIRYAMGWYRQAPGKERELVATITRRGGSTYYADSVTGRFTISRDNAKNTVYFQMNSLKPEDTAVYDCNRDYVTYGQYYYWGQGTQVTVSS
  polyreactivity (PSR sort gate): high polyreactivity

## QVQLVESGGGLVQAGGSLRLSCAASGRTFGSYAMGWYRQAPGKERELVAAISSGGRTYYADSVKGRFTISRDNAKNTVYLQMNSLKPEDTAVYYCAARLISYKTPGGYNYWGQGTQVTVSS
  polyreactivity (PSR sort gate): high polyreactivity

## QVQLVESGGGLVQAGGSLRLSCAASGFIFPGNARAWYRQAPGKERELVAAISNSGSRTYYADSVKGRFTISRDNAKNTVYLQMNSLKPEDTAVYYCNADVPNRGWPYDYWGQGTQVTVSS
  polyreactivity (PSR sort gate): low polyreactivity

## QVQLVESGGGLVQAGGSLRLSCAASGSTFSGYAMGWYSQAPGKERELVAAISWSGGRTYYADSVNGRFTISRDNAKNTVYLQMNSLKPEDTAVYYCDAVRKSAYEYWGQGTQVTVSS
  polyreactivity (PSR sort gate): high polyreactivity

## QVQLVESGGGLVQAGGSLRLSCAASGSIFRGNAMGWYRQAPGKERELVAAISKSGGSTYYADSVKGRFTISRDNAKNTVYLQMNSLKPEDTAVYYCAARTTYLYGMYYWGQGTQVTVSS
  polyreactivity (PSR sort gate): low polyreactivity

## QVQLVESGGGLVQAGGSLRLSCAASGRTFFRNAMGWDRQEPGSERELVAGISRSGGSTYYADSVKGRFTISRDNAKNTGYLQMNSLKPEDTAVYYCAAALYPYPGYEYWGQGTQVTVSS
  polyreactivity (PSR sort gate): high polyreactivity

## QVQLVESGGGLVQAGGTLRLSCAASGYIFVIYAMGWYRQAPGKEREWVAAISWSGDTTYYADSVKGRFTISRDNAKNTVYLQMNSLKPEDTAVYYCNAETAYYQVDYWGQGTQVTVSS
  polyreactivity (PSR sort gate): low polyreactivity

## QVQLVESGGGLVQAGGSLRLSCAASGSIFYSNVMGWYRQAPGKERELVASITNGGGTYYADSVKGRFTISRDNAKTTVYLQMNSLKPEDTAVYYCARRVYYWGQGTQVTVSS
  polyreactivity (PSR sort gate): high polyreactivity

## QVQLVESCGGLVQAGGSLRLSCAASGSTFRFYAMGWYRQAPGKERELVAAINGSGGSTYYADSVKGRFTISRDNAKNTVYLQMNSLKPEDTAVYYCAVLYRYGYDYWGQGTQVTVSW
  polyreactivity (PSR sort gate): low polyreactivity

## QVQLVESGGGLVQAGGSLRLSCAASGSTFVCYGMGWYRQAPGKEREFVAAISTSGGRTYYADSVKGRFSISRDNAKNTVYLQMNSLKQEDTAVYYCATRPYFTYRWYDYWGQGTKVTVSS
  polyreactivity (PSR sort gate): high polyreactivity

## KVQLVESGGGLVQAGGSLRLSCAASGSIISGNAMGWYRQAPGKERELVAAISRSGGRTYYADSVKGRFTISRDNAKNTVYLQMNSLKPEDTAVYFCAAGRSLRGDYWGQGTQVTVSS
  polyreactivity (PSR sort gate): high polyreactivity

## QVQLVESGGGLVQAGGRLRLSCAASGIIFVVNDMGWYRQAPGKEWELVADISDSGGSTNYADSVKGRFTISRDKAKNTVYLQMNSLKPEDTAVYYCAADSADPTEYDYWGQGTQVTVSS
  polyreactivity (PSR sort gate): low polyreactivity

## QVQLVESGGGLVQAGGSLRLSCADSGSIGYYAMGWYRQAPGKERELVAVISRSGTGTYYADSVKGRFTISRDNANNTVYLQMNSLKPEDTAVYYCNAETYTYRYENDYWGQGTQVTVSS
  polyreactivity (PSR sort gate): high polyreactivity

## QVQLVESGGGLVQAGGSLRLSCAASGTIFGPNAMGWYRKAPGTERELVAAITLSGGSTYYSDSVKGRFTISRDNAKNTVYLPMNSLKPEDTAVYYCAAGPDYGWRRYDYWGQGTQVTVSW
  polyreactivity (PSR sort gate): low polyreactivity

## QVQLVESGGGLVQAGGSLRLSCAASGSTFPSYAMGWYRQAPGKERELVAAINSGGGTNYADSVKGRFTISRDNAKNTVYLQMNSLKPEDTAVYYCAKSRYDYTKTEGGYWGQGSQVTVSS
  polyreactivity (PSR sort gate): low polyreactivity

## QVQLVESGGGLVQAGGSLRLSCAASGSIFPYYAMGWYRQATGKERELVATITSRGGSTYYADSVKGRFTISRDNAKNTVYLQMNSLIPEDTAVYNCAKEYRYYRRRYDYWGQGTQVTVSS
  polyreactivity (PSR sort gate): high polyreactivity

## QVHLVESGGGLVQAGGSLRLSFAASGSIFYFNAMGWYRQAPGKERELVAAINYSGGSTYYADSVKGRFTISRDNAKNTVYLQRNSLKPEDTAVYYCAAVTYFGWYPYRMEYWGQGTQVTVSS
  polyreactivity (PSR sort gate): high polyreactivity

## QVQLVESGGWLVQAGGSLRLSCAASGSIFTINTMGWYRQARGKERELVAAITGSGGITYYADSVKGRFTISRDNAKNTVYLQMNSLNPVDTAVYYCAAVVYGTVRRVGWYYVGEGYDYWGQGTQVTVSS
  polyreactivity (PSR sort gate): low polyreactivity

## QVQLVESGGGLVQAGGSLRLSCAASASTFYGYAMGRFRQAPGKERELVAAISSGGSTYYADSVKGRFTISRDNAKNTVYVQMNSLKPEVTAVYYCAAYSYPKKYGYWGQGTQVTVSL
  polyreactivity (PSR sort gate): high polyreactivity

## QVQLVESGGGLVQAGGSLRLSSAASGFTLYYYTMGWYRQAPGKERELVAAITSGGDTYYADSVKGRFTISRDNAKNTVYLHMHSLKPEDTAVYYCAADYGTQYGEYTYYDYDYWGKGTQVTVSS
  polyreactivity (PSR sort gate): low polyreactivity

## QVQLVESAGGLVQAGGSLRLSCAASGSTFVANAMGWYRQAPGKERELVARISRSTGSTYYADSVKGRFTISRDNAKNTVYLQMNSLKPEDTAVYYCAAPSVYYPQFDYWGQGTQVTVSS
  polyreactivity (PSR sort gate): high polyreactivity

## QFQLVESGGGLVQAGGSLRLSCAASGITFVYYAMGGYRQAPGKERELVAAISRGGTSTYYADSVKGRFTISRDNAKNTVYLHMNSLKPEDTAVYYCNARYPKSYRTNYYYWGQGTQVTVSS
  polyreactivity (PSR sort gate): high polyreactivity

## QVQLVESGGGLVQAGGSLRLSCAASGSILGPNAMGWYRQAPGKERELVARISTSGGSTYYADSVKGRFTISRDNAKNTVYLQMNSLKPEDTAVYYCATGLVWWRSPYDYWGQGTQVTVSS
  polyreactivity (PSR sort gate): high polyreactivity

## QVQVVESGGGLVQAGGSLRLSCAASGFTIFSYAMGWYRQAPGKERELVAAISRRGGSTYYADSVKGRFTISRDNAKNTVYLQMNSLKPEDTAVYYCNAKWTSHGTYAEDYWGQGTQVTVSS
  polyreactivity (PSR sort gate): high polyreactivity

## QVQLVESGGGLVQAGGSLRLSCAASGYTFRYYAMGGYRQAPGKERELVADINSGDITNYADSVKGRFTISRDNAKNTVYLQMNSQKPEDTAVYYCAPRTFSLYDYWGQGTQVTVSS
  polyreactivity (PSR sort gate): low polyreactivity

## QVQLVESGGGLVQAGGSLRLSCAGSGSTFYRYALGWYRQAPGKEWEWVAVINSGCSTYYADSVKGRFTISRDNAKHTVYVQMNSMKPEDTAVSYCAAVRNQGGYVYGYGYWGQGTQVTVSS
  polyreactivity (PSR sort gate): high polyreactivity

## QVQLVESGGGLVQAGGSLRLSCAASGRTFVYYAMGWYRQAPGTERELVAAISTGGSTNYADSVKGRFTISRDNAKNSVYLQMNSLKPEDTAVYYCAAQYYISISKYDYWGQGTQVTVSS
  polyreactivity (PSR sort gate): low polyreactivity

## QVQLVESGGGLVQAGGSLRLSCAASGSIFTFNAMGWYRQAPGKERELVAAISTGGNTYYADSVKGRFTISRDNAKNTVYLQINSLKPEDTAVFYCAAVRRTDGDGKYYYWGQGTQVTVSS
  polyreactivity (PSR sort gate): high polyreactivity

## QVQLVESGGGLVQAGGSLRLSCAASGRTFNWNAMGWYRQAPGKESEFVADISGRGGSTYYADSVKGRFTISRDNAKNTVYLQMNSLKPEETAVYYCAARPRFLRASVEFDYWGQGTQVTVSS
  polyreactivity (PSR sort gate): high polyreactivity

## QVQLVESGGGLVQAGGSLRLSCAASGITFKYYAMGWYRQAPGKESELVAAISRSGSSTYYADSVKGRFTISRDNAKNTVYLQINSLTPEDTAVYYCAADWKSKRTDKYDSWGQGTQVTVSS
  polyreactivity (PSR sort gate): high polyreactivity

## QVQLVESGGGLVQAGGSLRLSCAASGRTFTYYAMGWYRQAPGKERELVADINRSGGDTYYADSVKGRFTISRDNAKNTVYLQMNSLKPEDTAVYYCAADDWGAQHRYDYWGQGTQVTVSS
  polyreactivity (PSR sort gate): low polyreactivity

## QVQLVDSVGGLVEAGGILRLSCAASGNTFGRNAMGWYRQEPGKESELVAAISFSGSRPYYADSVKGRFTISRDNAKYTVYLQRNSLKPEDTAVYYCNKRGADWTGFFYYQYDFWGQGTQVTVSS
  polyreactivity (PSR sort gate): low polyreactivity

## QVQLVESGGGLVQAGGSLRLSCAASGSTFWAYVMGWYRQAPGKESELVAAISKSGVRTHYADSVKGRFTISRDNAKNTVYLQMNSLKPEDTAVYYCAAEWSWGPYRFDYWGQGTQVTVSS
  polyreactivity (PSR sort gate): high polyreactivity

## QVQLVESGGGLVQAGGSLRLSFAASGNIFSFNDMGWYRQAPGQERELVAAITSSDSTNYADSVKGRFTISRDNAKNTVYLQMNSLKPEDTAVYYCATEILTAARETVVYQFYLGYYYWGQGTQVTVSS
  polyreactivity (PSR sort gate): low polyreactivity
